Experimental data reported in the supplement of paper PMC9112550, “Optimization of the antimicrobial peptide Bac7 by deep mutational scanning” (BMC Biology, 2022).

test system: Escherichia coli TOP10; test: shrunken log2 fold change of peptide-encoding DNA abundance (4.5 h post-induction vs induction); higher = less antimicrobial activity (less host growth inhibition); details: time post-induction: 4.5 h; library: site-saturation at positions 5, 18, 19, 20
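Further: peptides expressed intracellularly from a pBAD plasmid library in pooled LB shake-flask culture, induced with 0.3% L-arabinose, DNA abundance read by NGS, three biological replicates, DESeq2 with apeglm shrinkage.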

Sequence | shrunken log2 fold change
RRIRVRPPRLPRPRPRPNEWPRP | 0.0106
RRIRVRPPRLPRPRPRPNGLPRP | -0.0536
RRIRVRPPRLPRPRPRPNHPPRP | -0.0266
RRIRVRPPRLPRPRPRPNIYPRP | -0.25
RRIRVRPPRLPRPRPRPNKEPRP | 0.0955
RRIRVRPPRLPRPRPRPNKWPRP | -0.138
RRIRVRPPRLPRPRPRPNLCPRP | -0.292
RRIRVRPPRLPRPRPRPNMMPRP | -0.248
RRIRVRPPRLPRPRPRPNMQPRP | -0.33
RRIRVRPPRLPRPRPRPNNAPRP | -0.0777
RRIRVRPPRLPRPRPRPNNTPRP | -0.418
RRIRVRPPRLPRPRPRPNNWPRP | -0.183
RRIRVRPPRLPRPRPRPNNYPRP | -0.726
RRIRVRPPRLPRPRPRPNRGPRP | 0.108
RRIRVRPPRLPRPRPRPNSHPRP | -0.402
RRIRVRPPRLPRPRPRPNWTPRP | 0.0136
RRIRVRPPRLPRPRPRPNWWPRP | 0.175
RRIRVRPPRLPRPRPRPNYAPRP | -0.192
RRIRVRPPRLPRPRPRPNYKPRP | -0.509
RRIRVRPPRLPRPRPRPNYWPRP | -0.307
RRIRVRPPRLPRPRPRPPAFPRP | 0.068
RRIRVRPPRLPRPRPRPPDRPRP | 0.379
RRIRVRPPRLPRPRPRPPFCPRP | 1.39
RRIRVRPPRLPRPRPRPPGEPRP | 0.511
RRIRVRPPRLPRPRPRPPGQPRP | 0.266

Sequence | shrunken log2 fold change
RRIRVRPPRLPRPRPRPPHHPRP | 0.0413
RRIRVRPPRLPRPRPRPPIEPRP | -0.115
RRIRVRPPRLPRPRPRPPKTPRP | 0.152
RRIRVRPPRLPRPRPRPPLCPRP | 0.338
RRIRVRPPRLPRPRPRPPLRPRP | 0.93
RRIRVRPPRLPRPRPRPPMAPRP | 0.228
RRIRVRPPRLPRPRPRPPMCPRP | 0.0598
RRIRVRPPRLPRPRPRPPMIPRP | -0.523
RRIRVRPPRLPRPRPRPPNNPRP | -0.233
RRIRVRPPRLPRPRPRPPNRPRP | 0.144
RRIRVRPPRLPRPRPRPPPPPRP | 1
RRIRVRPPRLPRPRPRPPQTPRP | 0.0537
RRIRVRPPRLPRPRPRPPRKPRP | 0.482
RRIRVRPPRLPRPRPRPPSNPRP | -0.034
RRIRVRPPRLPRPRPRPPTDPRP | 0.116
RRIRVRPPRLPRPRPRPPTQPRP | 0.273
RRIRVRPPRLPRPRPRPPVAPRP | 0.466
RRIRVRPPRLPRPRPRPPWYPRP | 0.0253
RRIRVRPPRLPRPRPRPQAIPRP | -0.0973
RRIRVRPPRLPRPRPRPQCEPRP | -0.0122
RRIRVRPPRLPRPRPRPQCGPRP | -0.0769
RRIRVRPPRLPRPRPRPQCTPRP | -0.149
RRIRVRPPRLPRPRPRPQDAPRP | -0.443
RRIRVRPPRLPRPRPRPQDEPRP | -0.114
RRIRVRPPRLPRPRPRPQEKPRP | 0.0369

Sequence | shrunken log2 fold change
RRIRVRPPRLPRPRPRPQENPRP | -0.119
RRIRVRPPRLPRPRPRPQEWPRP | -0.0187
RRIRVRPPRLPRPRPRPQFQPRP | -0.0795
RRIRVRPPRLPRPRPRPQGCPRP | -0.0651
RRIRVRPPRLPRPRPRPQGTPRP | -0.289
RRIRVRPPRLPRPRPRPQHPPRP | -0.0951
RRIRVRPPRLPRPRPRPQHWPRP | 0.171
RRIRVRPPRLPRPRPRPQIQPRP | -0.034
RRIRVRPPRLPRPRPRPQKHPRP | -0.247
RRIRVRPPRLPRPRPRPQKLPRP | -0.0565
RRIRVRPPRLPRPRPRPQKVPRP | -0.355
RRIRVRPPRLPRPRPRPQLDPRP | 0.269
RRIRVRPPRLPRPRPRPQLEPRP | 0.144
RRIRVRPPRLPRPRPRPQLHPRP | -0.147
RRIRVRPPRLPRPRPRPQMCPRP | 0.00424
RRIRVRPPRLPRPRPRPQMNPRP | -0.0919
RRIRVRPPRLPRPRPRPQMQPRP | -0.325
RRIRVRPPRLPRPRPRPQNAPRP | 0.00238
RRIRVRPPRLPRPRPRPQNEPRP | -0.303
RRIRVRPPRLPRPRPRPQNKPRP | -0.497
RRIRVRPPRLPRPRPRPQPLPRP | -0.109
RRIRVRPPRLPRPRPRPQRQPRP | -0.207
RRIRVRPPRLPRPRPRPQRWPRP | 0.496
RRIRVRPPRLPRPRPRPQSWPRP | 0.256
RRIRVRPPRLPRPRPRPQTTPRP | 0.213
